Patent US20140235490A1

System: SNAPtide (FITC/DABCYL), List Biological Laboratories product #521

BoNT/A complex (botulinum neurotoxin type A with neurotoxin associated proteins, Hall A strain)
Km of SNAPtide conversion, non-bead based assay (free toxin): non-bead based assay: typical Km=0.7 µM | Km of the immobilized enzyme against the free enzyme: 3.2-fold lower than for the free enzyme
